Reference: patent publication US20260176344A1 (SUZHOU ALPHAMAB, published 2026)

T1: human GIPR expressed on HEK293T cells (human, UniProt P48546 22-466)
T1 sequence (looked up): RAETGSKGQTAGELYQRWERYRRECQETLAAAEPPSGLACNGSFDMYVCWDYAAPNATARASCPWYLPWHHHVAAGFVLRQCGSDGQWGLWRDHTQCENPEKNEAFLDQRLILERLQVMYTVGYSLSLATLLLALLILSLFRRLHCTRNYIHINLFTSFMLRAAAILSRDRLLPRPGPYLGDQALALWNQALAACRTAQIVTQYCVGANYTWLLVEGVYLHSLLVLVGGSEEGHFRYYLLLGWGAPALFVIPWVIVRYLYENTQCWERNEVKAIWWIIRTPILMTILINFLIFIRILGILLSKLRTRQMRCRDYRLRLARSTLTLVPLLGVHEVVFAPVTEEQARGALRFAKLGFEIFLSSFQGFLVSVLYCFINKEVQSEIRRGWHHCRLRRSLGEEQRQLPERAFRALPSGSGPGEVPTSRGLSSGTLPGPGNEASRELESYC

T2: GIPR-ECD-chis (a his tag-fused human GIPR extracellular region fragment) (human, UniProt P48546 22-138, limits assumed)
T2 construct: extracellular domain; not shown: his tag
T2 sequence (looked up): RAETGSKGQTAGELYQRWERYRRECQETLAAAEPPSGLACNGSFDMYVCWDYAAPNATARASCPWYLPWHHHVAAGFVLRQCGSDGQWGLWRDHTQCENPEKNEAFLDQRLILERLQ

T3: GIPR-ECD-laFc (an alpaca Fc-fused human GIPR extracellular region fragment) (human, UniProt P48546 22-138)
T3 construct: extracellular domain; not shown: alpaca Fc
T3 sequence (looked up): T2 sequence (looked up)

B1: Maridebart (antibody, V domains shown)
VH: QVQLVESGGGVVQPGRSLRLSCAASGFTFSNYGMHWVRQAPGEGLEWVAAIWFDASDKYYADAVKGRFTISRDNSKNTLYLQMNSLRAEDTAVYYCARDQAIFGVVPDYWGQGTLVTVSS
VL: EIVMTQSPATLSVSPGERATLSCRASQSVSSNLAWYQQKPGQAPRLLIYGAATRATGIPARVSGSGSGTEFTLTISSLQSEDFAVYYCQQYNNWPLTFGGGTKVEIK
B2: iGI-27 (VHH)
VHH: QVQLVESGGALVQTGGSLRLFCAASGDTICITNMNWYRQAPGKGREFVAAITRSGRTLYADYVKGRFTISRDNARNTMSLQMNSMTSEDTAVYYCNADQNQTICAAEPSAWGRGTQVTVSS
notes: Tested as supernatant of a helper-phage-rescued clone (pComb3XSS), detected by anti-HA tag
B3: iGI-9 (VHH)
VHH: QVQLVESGGGLVQPGGSLRLSCETSKILFSSAYTMGWYRQAPGKQRELVATITTDYITNYVDSVKGRFTISRDNAKNTVYLQMNTLKLEDTAVYYCNARWGRDYWGQGTQVTVSS
notes: as for B2
B4: iGI-72 (VHH)
VHH: QVQLVESGGGLVQPGGSLRLSCAASRYTLDYYAIGWFRQAPGKEREGVSCINSKDGSTYYADSVKGRFTISKDNAKNTVYLQMNSLKPEDTAVYYCAAGYDPWSGIPPVQAMCVMGYDYWGQGTQVTVSS
notes: as for B2
B5: iGI-51 (VHH)
VHH: QVQLVESGGKLVQAGGSLRLDCVASGRTFSYYAIGWYRQAPGKEREFVAAIRASGGSTYYADSVKGRFTASRDNAKNTGYLQMNSLKPEDTAVYFCYAATIVPITPSTHGYWGQGTQVTVSS
notes: as for B2
B6: iGI-44 (VHH)
VHH: QVQLVESGGGLVQAGGSLKLSCAASGRTFSSKAMGWFRQAPGKEREFVAAINWSGDRTYHVNSIKGRFTISRDNAKNTVYLQMNSLKPEDTAVYYCTADRRDRATIPFQWHYWGQGTQVTVSS
notes: as for B2
B7: iGI-1198 (VHH)
VHH: QVQLQESGGGLVQPGGSLRLSCVASGSGFSIVAMGWYRQTPGKQRELVAAITSGGNTNYADSVKGRFTISRDNAKNTIYLQMNSLKPEDTAVYYCNADPGVVAGPYAGMDFWGKGTQVTVSS
notes: as for B2

Columns and labels:
[1] = molecular target: T1, human GIPR expressed on HEK293T cells; test: cell-based or functional assay
[2] = molecular target: T1, human GIPR expressed on HEK293T cells; test: cell binding on 293T-GIPR cells, anti-human SULFO-TAG secondary antibody, MSD read-out plotted as MFI
Method: The anti-human secondary antibody SULFO-TAG (MSD, Cat. No. R32AJ-1) was added, followed by incubation. The mean fluorescence intensity (MFI) was measured using MSD.

[3] = molecular target: T2, GIPR-ECD-chis (a his tag-fused human …); test: BLI, antibody on AHC sensor, GIPR-ECD-chis in solution
[4] = molecular target: T4, Control-2 (C2), a laFc-containing fusion protein; test: phage supernatant ELISA, coated control protein, anti-HA HRP, A450-A650
T4 construct: Negative panning and ELISA control
Method: (§1) The binding-positive phages obtained after the panning were used to infect blank E. coli cells, which were then plated. Subsequently, colonies were picked, inoculated separately into 2TY-AG (containing 10% glycerol), and left to stand overnight at room temperature. The next day, the cultures were separately inoculated into 200 μL of 2TY-AG, with an inoculation amount of 1%, and incubated at 37° C. at 250 rpm until OD600 reached about 0.5. Helper phage M13KO7 was added for infection (at a multiplicity of infection of 1:20). The cultures were left to stand at 37° C. for 15 min and then incubated at 220 rpm for 45 min. 800 μL of 2TY-AG was added to each well, and the plate was incubated overnight at 30° C. at 220 rpm and centrifuged the next day. The supernatants were collected for ELISA assays. Plates were coated overnight at 4° C. with GIPR-ECD-Chis, GIPR-ECD-laFc, C1, and C2, respectively, and the obtained supernatants were added. The plates were incubated at room temperature for 2 hours. After washing, the secondary antibody Goat anti-HA tag HRP (purchased from Abcam) was added, and the plates were incubated at room temperature for 2 hours. After washing, TMB chromogenic solution was added, and absorbance values at wavelengths of 450 nm and 650 nm were read. The final absorbance values were obtained by subtracting the absorbance values at the wavelength of 650 nm from the absorbance values at the wavelength of 450 nm.

[5] = molecular target: T5, Control-1 (C1), a muFc-containing fusion protein; test: as above
T5 construct: Negative panning and ELISA control
Method: as §1

[6] = molecular target: T3, GIPR-ECD-laFc (an alpaca Fc-fused human …); test: phage supernatant ELISA, coated antigen, anti-HA HRP, A450-A650
Method: as §1

Row | Binder | EC50 of the inhibition rate (%) of GIP-induced cAMP expression in 293T-GIPR cells [1] | EC50 [2] | Kd [3] | koff [3] | kon [3] | OD value [4] | OD value [5] | OD value [6]
1 | B1 | 0.351 µg/mL | 1.18 nM | 16.3 nM | 0.00222 s⁻¹ | 136000 M⁻¹ s⁻¹ | – | – | –
2 | B2 | – | – | – | – | – | 0.023 OD | 0.018 OD | 2.23 OD
3 | B3 | – | – | – | – | – | 0.028 OD | 0.018 OD | 2.21 OD
4 | B4 | – | – | – | – | – | 0.077 OD | 0.019 OD | 2.2 OD
5 | B5 | – | – | – | – | – | 0.027 OD | 0.042 OD | 2.17 OD
6 | B6 | – | – | – | – | – | 0.023 OD | 0.018 OD | 2.31 OD
7 | B7 | – | – | – | – | – | 0.027 OD | – | 1.95 OD
